Reference: PMC5707354 (Nature Communications, 2017)
Each block holds one molecule with its values, some of them ahead of it.

Experiments:
[1] = biological target: Myosin VI tail (MVITAIL 814-1253) (human); assay: FRET or BRET; AF555-labelled pool titrated against the FITC-labelled pool of the same construct, no additive; monomer to dimer; 25 C, 50 mM Tris-HCl pH 7.5, 150 mM NaCl, 1 mM DTT
[2] = biological target: Myosin VI tail (MVITAIL 814-1253) (human); assay: FRET or BRET; AF555-labelled pool titrated against the FITC-labelled pool of the same construct in the presence of 20 uM NDP52; monomer to dimer; 25 C, 50 mM Tris-HCl pH 7.5, 150 mM NaCl, 1 mM DTT
[3] = biological target: Myosin VI tail (MVITAIL 814-1253) (human); assay: FRET or BRET; AF555-MVITAIL and FITC-MVITAIL in the presence of 20 uM DNA; monomer to dimer; 25 C, 50 mM Tris-HCl pH 7.5, 150 mM NaCl, 1 mM DTT
[4] = biological target: Myosin VI tail (MVITAIL 814-1253) (human); assay: FRET or BRET; AF555-MVITAIL titrated against FITC-MVITAIL in the presence of 20 uM NDP52 and DNA; monomer to dimer; 25 C, 50 mM Tris-HCl pH 7.5, 150 mM NaCl, 1 mM DTT
[5] = biological target: Full-length myosin VI (non-insert isoform), recombinant, co-expressed with calmodulin (human | Xenopus) (UniProt Q9UM54)
[6] = biological target: T1, NDP52 (Human, UniProt Q13137 1-446)
T1 sequence: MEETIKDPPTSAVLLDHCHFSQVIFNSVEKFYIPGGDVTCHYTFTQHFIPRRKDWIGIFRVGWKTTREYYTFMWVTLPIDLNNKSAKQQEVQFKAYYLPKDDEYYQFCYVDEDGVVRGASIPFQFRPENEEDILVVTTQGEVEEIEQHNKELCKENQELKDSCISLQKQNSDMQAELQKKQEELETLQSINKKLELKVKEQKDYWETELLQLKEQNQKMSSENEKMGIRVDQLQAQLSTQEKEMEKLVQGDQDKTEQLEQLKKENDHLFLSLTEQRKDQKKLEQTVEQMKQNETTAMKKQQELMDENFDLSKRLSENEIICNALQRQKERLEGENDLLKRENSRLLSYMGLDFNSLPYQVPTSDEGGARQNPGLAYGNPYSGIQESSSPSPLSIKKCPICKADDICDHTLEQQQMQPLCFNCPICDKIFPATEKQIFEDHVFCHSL

[7] = biological target: T1, NDP52; assay: FRET or BRET; FITC-MVI_TAIL constructs and Alexa555-NDP52 (1 uM); 25 C, 50 mM Tris-HCl pH 7.5, 150 mM NaCl, 1 mM DTT
[8] = biological target: N-terminal tail domain of myosin VI (NMVITAIL 814-1060) (human); assay: FRET or BRET; AF555-labelled pool titrated against the FITC-labelled pool of the same construct, no additive; monomer to dimer; 25 C, 50 mM Tris-HCl pH 7.5, 150 mM NaCl, 1 mM DTT
[9] = biological target: Cargo binding domain of myosin VI (CBD 1060-1253) (human); assay: fluorescence polarisation; fluorescence anisotropy; unlabelled protein titrated against the FITC-labelled partner (NMVITAIL against FITC-CBD and CBD against FITC-NMVITAIL); 25 C, 50 mM Tris-HCl pH 7.5, 150 mM NaCl, 1 mM DTT
[10] = biological target: Cargo binding domain of myosin VI (CBD 1060-1253) (human); assay: FRET or BRET; Alexa555-NMVITAIL titrated to FITC-CBD (1 uM); 25 C, 50 mM Tris-HCl pH 7.5, 150 mM NaCl, 1 mM DTT; quadratic binding fit
[11] = biological target: N-terminal tail domain of myosin VI (NMVITAIL 814-1060) (human); assay: fluorescence polarisation; fluorescence anisotropy; unlabelled protein titrated against the FITC-labelled partner (NMVITAIL against FITC-CBD and CBD against FITC-NMVITAIL); 25 C, 50 mM Tris-HCl pH 7.5, 150 mM NaCl, 1 mM DTT
[12] = biological target: CBD (Human, UniProt Q9UM54-5 1060-1253); assay: fluorescence anisotropy; FAM-DNA 50 nM; assay buffer, salt, pH and temperature not given in the material (duplex annealing in water or 50 mM Tris-HCl pH 7.5, 150 mM NaCl, 3 mM MgCl2); settings: protein: recombinant, tags: His-tag (pET28)
[13] = biological target: Myosin VI tail RRL/RRA mutant (MVITAIL RRL/RRA, L1118A) (human); assay: FRET or BRET; FITC-MVITAIL constructs and Alexa555-NDP52 (1 uM NDP52 by the legend of Fig. 4d); 25 C, 50 mM Tris-HCl pH 7.5, 150 mM NaCl, 1 mM DTT; quadratic binding fit
[14] = biological target: Myosin VI tail, large insert (MVITAIL (large insert) 814-1284) (human); assay: as above
[15] = biological target: Myosin VI tail (MVITAIL 814-1253) (human); assay: as above
[16] = biological target: Myosin VI tail RRL/AAA mutant (MVITAIL RRL/AAA) (human); assay: as above
[17] = biological target: Myosin VI tail RRL/ARL mutant (MVITAIL RRL/ARL, R1116A) (human); assay: as above
[18] = biological target: T1, NDP52; assay: fluorescence intensity titration; FAM-DNA 50 nM; assay buffer, salt, pH and temperature not given in the material (duplex annealing in water or 50 mM Tris-HCl pH 7.5, 150 mM NaCl, 3 mM MgCl2); settings: protein: recombinant; tags: His-tag (pET151), TEV-cleaved; chain copies: 2; label: 3' FAM on strand A; blunt
[19] = biological target: MVITAIL(W1221A) (Human, UniProt Q9UM54-5 814-1253, W1221A); assay: fluorescence anisotropy; FAM-DNA 50 nM; assay buffer, salt, pH and temperature not given in the material (duplex annealing in water or 50 mM Tris-HCl pH 7.5, 150 mM NaCl, 3 mM MgCl2); settings: protein: recombinant; tags: His-tag (pET151), TEV-cleaved; label: 3' FAM on strand A; blunt
Sequence of MVITAIL(W1221A) (Q9UM54 other isoform, or with tags, fused parts or gaps W1221A | W1221A W1221A): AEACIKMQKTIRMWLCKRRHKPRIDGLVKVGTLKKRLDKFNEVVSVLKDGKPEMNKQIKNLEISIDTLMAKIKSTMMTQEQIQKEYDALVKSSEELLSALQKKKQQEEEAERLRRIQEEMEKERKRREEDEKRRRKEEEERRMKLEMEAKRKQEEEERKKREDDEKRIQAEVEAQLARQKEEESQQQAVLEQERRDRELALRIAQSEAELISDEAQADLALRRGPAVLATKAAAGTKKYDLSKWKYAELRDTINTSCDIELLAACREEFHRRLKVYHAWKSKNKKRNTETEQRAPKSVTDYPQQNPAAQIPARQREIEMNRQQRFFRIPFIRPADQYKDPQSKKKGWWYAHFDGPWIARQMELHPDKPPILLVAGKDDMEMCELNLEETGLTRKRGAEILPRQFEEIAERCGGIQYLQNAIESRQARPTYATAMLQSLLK

[20] = biological target: MVITAIL (Human, UniProt Q9UM54-5 814-1253); assay: as above; settings: protein: recombinant; tags: His-tag (pET151), TEV-cleaved; label: 3' FAM on strand A; blunt
Sequence of MVITAIL (Q9UM54 other isoform, or with tags, fused parts or gaps): as the sequence (Q9UM54 other isoform, or with tags, fused parts or gaps W1221A | W1221A W1221A) above, with A408W counted along it

[21] = biological target: T2, NDP52 (recombinant) (UniProt Q13137 1-446, Alexa Fluor 555 label in the FRET titration with MVI_TAIL; unlabelled where added as a third component); assay: FRET or BRET; FITC-MVI_TAIL constructs and Alexa555-NDP52 (1 uM); 25 C, 50 mM Tris-HCl pH 7.5, 150 mM NaCl, 1 mM DTT; settings: both partners purified
T2 construct: NDP52 (SKICH domain, coiled-coil, two zinc fingers); also called Alexa555-NDP52; source: E. coli BL21 DE3, purified (HisTrap, Superdex 200)
T2 sequence (looked up): T1 sequence

[22] = label: 3' FAM on strand A, blunt

Molecule: Myosin VI tail (MVITAIL 814-1253) (domain or fragment)
Kd [1]: 27 µM
Kd [2]: 2.3 µM
Kd [3]: 29 µM
Kd [4]: 2.5 µM

Molecule: N-terminal tail domain of myosin VI (NMVITAIL 814-1060) (domain or fragment)
Kd [8]: 3.1 µM
Kd [9]: 4 µM
Kd [10]: 4.5 µM

B1: ds15 (15 bp) (dsDNA)
DNA 1: TTAGTTGTTCTCTGG
DNA 2: CCAGAGAACAACTAA
Kd [12, 22]: 0.5 ± 0.045 µM

B2: NDP52 (1-end) (natural protein)
chain: T1 sequence
modifications: Alexa Fluor 555 label (site not stated)
Kd [13]: 21 µM
Kd [14]: 9.8 µM
Kd [15]: 3.2 µM
Kd [16]: 63 µM
Kd [17]: 4.6 µM

B3: ds40 (dsDNA)
DNA 1: TTAGTTGTTCGTAGTGCTCGTCTGGCTCTGGATTACCCGC
DNA 2: GCGGGTAATCCAGAGCCAGACGAGCACTACGAACAACTAA
Kd [18]: 0.08 ± 0.025 µM
Kd [12, 22]: 0.1 µM
Kd [19]: 0.3 ± 0.03 µM
Kd [20]: 2.5 µM

Molecule: TTAGTTGTTCGTAGTGCTCGTCTGGCTCTGGATTACCCGC (ssDNA) [ss40]
Kd ([12]; label: 3' FAM): 0.12 ± 0.035 µM

Molecule: TCTGGCTCTGGATTACCCGC (ssDNA) [ss20]
Kd ([12]; label: 3' FAM): 0.11 ± 0.035 µM

Molecule: TTTTTTTTTTTTTTTTTTTT (ssDNA) [dT20]
Kd [12]: 0.12 ± 0.025 µM

Other lines, results leading:

steady-state actin-activated ATPase rate constant of MVI, reduction on addition of NDP52 [5]: 50%
velocity of actin filaments in the sliding filament assay with MVI pre-incubated with / immobilised through NDP52 (0.1, 0.5 or 1 μM); two populations, 50–60 and 90 nm s^−1 [6]: 90 nm/s
Molecule: Full-length myosin VI (non-insert isoform), recombinant, co-expressed with calmodulin (from UniProt Q9UM54-5 1-1253; P0DP33 1-149) (complex)

fold decrease in affinity against wild-type MVI TAIL [7]: 10 fold
Molecule: MVI_(TAIL) with the leucine of the RRL motif removed (RRA) (domain or fragment)

Kd [11]: 4.2 µM
Molecule: Cargo binding domain of myosin VI (CBD 1060-1253) (domain or fragment)

fold reduction of binding against wild-type MVI_TAIL [21]: 4 fold
B4: MVI_(TAIL) (large insert) (domain or fragment)
chain: AEACIKMQKTIRMWLCKRRHKPRIDGLVKVGTLKKRLDKFNEVVSVLKDGKPEMNKQIKNLEISIDTLMAKIKSTMMTQEQIQKEYDALVKSSEELLSALQKKKQQEEEAERLRRIQEEMEKERKRREEDEKRRRKEEEERRMKLEMEAKRKQEEEERKKREDDEKRIQAEVEAQLARQKEEESQQQAVLEQERRDRELALRIAQSEAELISDEAQADLALRSLDSYPVTSKNDGTRPKMTPEQMAKEMSEFLSRGPAVLATKAAAGTKKYDLSKWKYAELRDTINTSCDIELLAACREEFHRRLKVYHAWKSKNKKRNTETEQRAPKSVTDYAQQNPAAQIPARQREIEMNRQQRFFRIPFIRPADQYKDPQSKKKGWWYAHFDGPWIARQMELHPDKPPILLVAGKDDMEMCELNLEETGLTRKRGAEILPRQFEEIWERCGGIQYLQNAIESRQARPTYATAMLQSLLK
modifications: FITC label
